Settings in all cases: chain copies: 4; label: 32P
Series [1] concerns the target T1, p53 Arg284 delta364-393 (Homo sapiens, UniProt P04637 SEQ:1-363). Put plainly: EMSA; enhancement not noted on this site. The procedure: (§1) For analysis of DNA binding activity, these proteins were incubated with ^32P-labeled oligonucleotides and subjected to electrophoresis as described [Halazonetis (1993a and 1993b) and Waterman (1995), both cited above]. […] CCC-GAACA-TGTCC-CAACA-TGTTG-GGG, each contain a p53 binding site, which is underlined. […] Oligonucleotide Egadd45has the sequence [SEQ ID NO: 31] ACA-GAACA-TGTCT-AAGCA-TGCTG-GGGA. Oligonucleotide TF3, which contains three tandem repeats of [SEQ ID NO: 32] […], is a non-specific DNA [Halazonetis et al, *EMBO J.*, 12:1021–1028 (1993)].
(§2) Figure 4: FIG. 4 illustrates the effect of the Thr284 to Arg substitution on binding of wild-type p53 and tumor-derived p53 mutants to a high affinity DNA site, and to the sites in the p21^cip1 and gadd45 genes (oligonucleotides BC, Ep21 and Egadd45, respectively). Binding was assayed by gel retardation shift analysis on native electrophoretic gels. Only the region of the gel corresponding to the p53-DNA complexes is shown. The amino acids are abbreviated using the single letter code: Arg, R; Cys, C; Gln, Q; His, H; Lys, K.
A general note: In EMSA bound probe runs differently from free probe, usually more slowly.

For series [2], the target named is p53 delta364-393 (Homo sapiens, UniProt P04637 SEQ:1-363). Put plainly: EMSA. The procedure: as §1, §2
The target of series [3] is T1, p53 Arg284 delta364-393. Put plainly: EMSA; enhanced vs wild type. The procedure: as §1, §2
Series [4] addresses p53 Ser249 (Homo sapiens, UniProt P04637 SEQ:1-393). Put plainly: EMSA; not activated by PAb421. The procedure: as §1

B1: oligonucleotide Egadd45 (dsDNA)
DNA 1: ACAGAACATGTCTAAGCATGCTGGGGA
DNA 2: TCCCCAGCATGCTTAGACATGTTCTGT
As for B1, the binding result in series [1] and in series [2] was “binds” throughout.

B2: oligonucleotide Ep21 (dsDNA)
DNA 1: CCCGAACATGTCCCAACATGTTGGGG
DNA 2: CCCCAACATGTTGGGACATGTTCGGG
For B2, the binding result in series [3] was “binds”.

B3: oligonucleotide BC (dsDNA)
DNA 1: CCGGGCATGTCCGGGCATGTCCGGGCATGT
DNA 2: ACATGCCCGGACATGCCCGGACATGCCCGG
In the case of B3, the binding result in series [3] is recorded as “binds”; in series [4], “no binding”.

The values above are taken from US5847083, “Modified p53 constructs which enhance DNA binding” (The Wistar Institute of Anatomy and Biology).
